According to patent publication US20040171537A1 (HOSPITAL FOR SICK CHILDREN, published 2004):

What was measured:
[1] = target: T1, c-Cbl (endogenous, Jurkat T-cell lysate) (human, UniProt P22681 1-906, tyrosine phosphorylated after anti-CD3 stimulation (sites not given)); test: GST pull-down from Jurkat T-cell lysates, anti-c-Cbl immunoblot
T1 construct: also called 120 kDa phosphoprotein

[2] = target: T1, c-Cbl (endogenous, Jurkat T-cell lysate); test: GST pull-down from unstimulated or anti-CD3 stimulated Jurkat lysates, anti-c-Cbl immunoblot
Procedure: Full-length MARS and MARS-v coding regions were fused in-frame to glutathione-S-transferase, in PGEX4T1. Recombinant GST fusion proteins were expressed in bacteria and purified on glutathione sepharose (GS) (Pharmacia). Jurkat T-cells (20×10⁶) were either left unstimulated (−) or stimulated with anti-CD3 (+); (anti-human CD3ε, clone UCGT1, Pharmingen) for 2 minutes. Cells were lysed in 1% NP-40 lysis buffer containing 1 mM sodium orthovanadate and complete protease inhibitors (Roche). Cell lysates were incubated with 4 μg of GS bound GST fusion proteins for 90 minutes at 4° C. and washed 4 times for 10 minutes with 0.1% NP-40 lysis buffer. Bound proteins were eluted by boiling in 2×SDS sample buffer and were resolved by SDS-PAGE on 10% polyacrylamide gels. Proteins were subsequently transferred to PVDF membrane (NEN) and blotted with anti-phosphotyrosine antibody (clone 4G10, UBI; top panel, FIG. 13). Membranes were stripped and reprobed with anti-c-Cbl antibody (Santa Cruz; middle panel, FIG. 13), and subsequently stained with Coomassie blue dye to check for equal loading of the respective fusions (bottom panel, FIG. 13).

Binder | binding result [1] | binding result [2]
GST-MARS delta-C (deletion of the carboxy-terminal 70 amino acids) (other, not shown: a dimerising Fc or GST; large carriers; small tags and cut ends, N-terminal GST fusion from pGEX-4T1; GST letters are not given and are left out, Residues 1-189 are worked out from the 259-residue entry; also called MARS AC mutant; C-terminal deletion mutant of MARS) MGSLSSRGKTSSPSPSSSGPDQEPVSMQPERHKVTAVALGSFPAGEQARLSLRLGEPLTIISEDGDWWTVQSEVSGREYHMPSVYVAKVAHGWLYEGLSREKAEELLLLPGNPGGAFLIRESQTRRGCYSLSVRLSRPASWDRIRHYRIQRLDNGWLYISPRLTFPSLHALVEHYSELADGICCPLREP | no binding | –
GST fusion of human MARS-v (MARS short isoform, splice variant) (other, not shown: a dimerising Fc or GST; large carriers; small tags and cut ends, N-terminal GST fusion from pGEX-4T1; GST letters are not given and are left out, The full-length MARS-v coding region (210 amino acids) was fused in-frame to GST; also called MARS-variant; MARS splice variant) MGSLPSRRKSLPSPSLSSSVQGQGPVTMEAERSKATAVALGSFPAGGPAELSLRLGEPLTIVSEDGDWWTVLSEVSGREYNIPSVHVAKVSHGWLYEGLSREKAEELLLLPGNPGGAFLIRESQTRRGSYSLSVRLSRPASWDRIRHYRIHCLDNGWLYISPRLTFPSLQALVDHYSEGWPAPWQGYTPTCDCAEDTTQLERAGQLPPVF | – | no binding (tested: 4 µg of GS bound GST fusion proteins)
